From PMC3393671

Legend:
[1] = target: GST-Irga6-D164A (mouse) (UniProt Q9QZ85); test: pull-down; GST-IRG fusion (25 or 50 µg per 100 µl 1:1 bead suspension) on Glutathione Sepharose 4B; postnuclear NP-40 lysate of RH-YFP T. gondii; o/n at 4°C; with or without 1 mM GDP; Western blot with mAb 3E2 (ROP5) or anti-ROP18 antiserum; GST-loaded beads as control
[2] = target: ROP5 of T. gondii strain RH-YFP (isoforms not told apart) (UniProt F2YGR7); test: pull-down (quantitated Western blot); conditions: 25 µg protein/100 µl 1:1 bead suspension; RH-YFP strain T. gondii lysates; 3E2 antibody (anti-ROP5); GST signal subtracted; parent: est. 100; read off a plot
Chain of ROP5 of T. gondii strain RH-YFP (isoforms not told apart) (UniProt F2YGR7) (F2YGR7 25-549): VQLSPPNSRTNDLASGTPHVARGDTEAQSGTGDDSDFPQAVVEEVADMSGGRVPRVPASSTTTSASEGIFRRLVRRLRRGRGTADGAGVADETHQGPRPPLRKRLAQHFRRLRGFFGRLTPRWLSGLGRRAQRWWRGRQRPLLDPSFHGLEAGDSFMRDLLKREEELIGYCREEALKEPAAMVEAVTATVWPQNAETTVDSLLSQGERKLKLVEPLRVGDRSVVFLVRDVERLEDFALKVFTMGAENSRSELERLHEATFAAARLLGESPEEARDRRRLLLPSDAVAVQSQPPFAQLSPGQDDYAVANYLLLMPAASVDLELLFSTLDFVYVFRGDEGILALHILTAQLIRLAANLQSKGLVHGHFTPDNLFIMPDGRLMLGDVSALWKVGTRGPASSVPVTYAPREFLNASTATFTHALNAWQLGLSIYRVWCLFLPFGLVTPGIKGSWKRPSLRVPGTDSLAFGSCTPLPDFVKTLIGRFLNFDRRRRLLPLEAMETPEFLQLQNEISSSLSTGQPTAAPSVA

Chain of GST-Irga6 (Q9QZ85 1-411, stated change not applied): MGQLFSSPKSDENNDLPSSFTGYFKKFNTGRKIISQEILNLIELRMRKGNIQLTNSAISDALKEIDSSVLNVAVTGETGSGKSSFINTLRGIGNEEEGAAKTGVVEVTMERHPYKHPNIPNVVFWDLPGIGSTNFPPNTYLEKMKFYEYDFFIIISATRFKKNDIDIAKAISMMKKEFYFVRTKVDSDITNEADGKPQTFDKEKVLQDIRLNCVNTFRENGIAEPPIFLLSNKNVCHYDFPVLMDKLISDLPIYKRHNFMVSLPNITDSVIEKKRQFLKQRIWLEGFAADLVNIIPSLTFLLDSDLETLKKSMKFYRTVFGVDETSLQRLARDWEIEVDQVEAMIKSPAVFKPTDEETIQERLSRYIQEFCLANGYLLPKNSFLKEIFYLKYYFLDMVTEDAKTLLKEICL
Chain of GST-Irga6-D164A (mouse) (Q9QZ85 1-411 D164A): as the sequence (Q9QZ85 1-411, stated change not applied) above, with D164A counted along it
Chain of ROP5 of T. gondii strain RH-YFP (isoforms not told apart) (from UniProt F2YGR7 25-549) (natural protein) (F2YGR7 25-549): as the sequence (F2YGR7 25-549) above

Substance	percent of ROP5 binding blocked (against wt GST-Irga6) [1]	percent of parent (% of wild-type intensity) [2]
ROP5 of T. gondii strain RH-YFP (isoforms not told apart) (from UniProt F2YGR7 25-549) (natural protein)	> 95%	
GST-Irga6 (from UniProt Q9QZ85) D206R		68
